Reference: the supplement of paper PMC10567573

B1: MYBL2 (parent)
chain: FSPSQFLNFWNKQDTLELESPSLT

Variants of: B1
Test: protein stability index of a GFP-peptide fusion (GPS, HEK-293T) (PSI 1-6); higher = more stable
Settings: c terminus: a fixed tail appended
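Note: lentivirally expressed fusions sorted by FACS into six bins by GFP to DsRed ratio, PSI derived from sequencing read proportions per bin multiplied by bin number.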

Protein stability index: each site, then its substitutions
T24: M 2.65 | P 3.08 | I 2.2 | Y 2.73 | C 3.38 | S 2.36 | N 2.1 | L 2.52
E19: F 2.58 | I 2.94 | C 3.63 | P 2.86 | R 2.75 | S 2.07 | A 2.63 | L 4.26 | D 3.09 | Y 2.11 | T 2.39 | N 3.12 | W 2.64 | H 2.88 | V 2.8 | G 1.66
N11: G 2.56 | R 2.48 | P 2.51 | D 3.14 | A 1.4 | L 3.89 | F 2.14 | C 4.67 | Y 3.26 | Q 2.77 | E 2.73 | T 2.79 | S 2.99 | I 2.5
Q13: D 3.51 | H 3.41 | T 2.4 | I 4.44 | F 2.17 | R 1.21 | M 3.43 | N 3.24 | P 2.06 | A 3.54 | S 3.98 | Y 3.56 | W 3.25 | V 2.94
P21: L 3.37 | Y 2.69 | T 2.36 | G 3.5 | K 3.01 | I 3.74 | M 3.16 | S 2.09 | D 2.2 | W 3.86 | N 3.41 | Q 2.56 | C 2.77 | R 2.36 | E 2.64 | V 2.53 | F 3.56
K12: D 3.15 | Q 1.93 | M 3.42 | T 2.59 | F 2.97 | R 2.52 | H 2.4 | N 2.84 | V 4.37 | Y 3.78 | G 4.46 | P 3.55 | A 2.9 | I 3.21 | S 2.02 | E 2.25
W10: T 2.98 | S 2.91 | Y 2.63 | V 1.89
T15: R 2.54 | Y 1.38 | I 2.92 | K 2.68 | C 2.54 | Q 1.82 | G 3.51 | A 3.05 | F 2.34 | P 2.48 | L 3.22 | N 3 | S 4.29 | H 3.8 | W 3.33 | E 2.4 | M 3.12 | D 2.09
L23: N 2.65 | V 2.91 | A 2.08 | F 3.38 | G 2.27 | E 2.26 | H 2.79 | C 2.71 | D 3.49 | S 2.13 | M 2.41 | R 2.97 | I 4.19
E17: T 2.41 | A 1.07 | C 2.41 | Y 2.41 | V 3.59 | D 3.02 | Q 3.02 | W 2.71 | F 1.84 | L 3.9 | I 3.94 | R 2.45 | K 2.48 | H 2.37 | M 3.58 | N 2.33 | P 1.74 | S 3.58
S20: P 1.65 | R 2.26 | C 2.08 | F 2.57 | T 2.83 | K 2.35 | I 2.75 | G 2.84 | Q 3.9 | W 2.37 | M 3.66 | V 2.31 | D 2.62 | E 1.23 | L 1.89
D14: V 3.22 | P 2.98 | S 1.31 | G 2.94 | H 2.39 | C 4.04 | Y 3.5 | A 2.94 | K 4.25 | M 2.63 | R 4.08 | L 2.6 | Q 2.89 | F 3.92
